Laboratory results reported in the DeepSol protein solubility set.

Test: soluble on expression in E. coli; label from the status in PepcDB or PDB records

Sequence	soluble on expression in E. coli
MNAAIHPRPAAERAPSYYAATLNEETDYPTLLGAVTVDIAIIGGGFTGVATAVELAERGYKVALVETHRIGWGASGRNGGQVTGSLSGDAAMHKQMRQWLGAEVEDFIWHLRWRGHEIIRQRVEKYGIACDLRHGHLHAAMKASHMGELQASYEEAVRRGMGDQVVLLDKAGVQAHLETELYCGALKNTRNMHLHPLNLCIGEARAAAGLGALIFEHSEVLDIVHGPRPAVITREGRIEAQQILLAGDVYHKLERRQLKGMIFPAMGGIVTTRPLGELAREINPQGLAVYDCRFVLDYYRPTADGRLLFGGGANYSGRDSRDITAELRPCIERTFPRLKGVEIEFQWSCAMGIVMNRIPQLGKLSDNVWYCQGYSGHGVATSHIMGEIMAKAMSGSLEQFDTFARCKHLRVPLGDLFGNPMLAAGMWYYQLMEKLRLEHHHHHH	not soluble
MGSDKIHHHHHHMIHRQTNQLNTDNLEKKQRQYKYAFNLAEIDSESFPMHIFRKYAKDVFEDHQLSLLQRGERQGEYILRQQISHYLFNSRGVTCHPNQIIVGSSTSQLLDMITNLLKKEEFIIEQPSYPPIKHTLDKKGISYIQVPVEQNGIQIDPILNTNNNILYITPSHQFPTGYVTNLKKRTQLINWSHQAKQRYIIEDDYDSEFRYFGKPIPALQSLDTKGKVIYISTFSKSLYPSCRIAYIVLPQNLMHKYNNQKYKEGNTVPVHVQHMIAQFMISGKFERHLNKMRKIYRDKLDYILKRLKPYNTQIKIEGALTGMHFTITVNNGLSMKQCLKNAKKNNLKLKPYHYENYSKVYPKFILGFGGIKKEELEDHVNALIHSLVI	not soluble
MSNELPWQVWTPDDLAPPPETFVPVEADNVTLTEDTPEPELTAEQQLEQELAQLKIQAHEQGYNAGLAEGRQKGHAQGYQEGLAQGLEQGQAQAQTQQAPIHARMQQLVSEFQNTLDALDSVIASRLMQMALEAARQVIGQTPAVDNSALIKQIQQLLQQEPLFSGKPQLRVHPDDLQRVEEMLGATLSLHGWRLRGDPTLHHGGCKVSADEGDLDASVATRWQELCRLAAPGVL	not soluble
VRRVPLFENMDERLLDAICERLKPCLFTEKSYLVREGDPVNEMLFIIRGRLESVTTDGGRSGFYNRSLLKEGDFCGDELLTWALDPKSGSNLPSSTRTVKALTEVEAFALIADELKFVASQFRR	soluble
MGSDKIHHHHHHMITQINIENFKCFSKKNMPVGALTMLTGFNAAGKSTALQALLLISQMVSGRHGDVSAALNGELVRMGTPGDVLRSDGSKEIKIGIETVEQKIQWTLVPSINLNNSLDLKDIHWASPNGVGDLTNISCNTSFNGLTPNEAPSDLSNLANEISDLIFISAVRMGTQDVYPSPTEPSPIRANVGMRGDYAPWWYEQHLDYEIDQKRVHSSEKALTLRRQLNAWLDQLFPGAEANAQKLPNTDLIQLLFRNSKTDVWRKPANIGYGLTYAFPILVAGLLARPGQLLIIDSPEAHLHPLGQSNMGKFLAKIAASGVQVLVETHSDHVLNGARLAVKSRVIDSRDVGILFFNRPPQKDGDPEHIIAPSIDKEGNLSDWPLGFFDQAENDLAVLADWG	not soluble
MAHHHHHHSLSSSLANRNIYTVSRLNSEVRLLLENEMGIVWLVGEISNFSAPVSGHWYLTLKDSQAQVKCAMFKGNNRLVNFKPQNGQQVLVKARLSLYEPRGDYQIILESMQPEGDGRLQQQFEQLKMQLAAEGLFAQTRKKPLPENPRCVGIITSRTGAALHDILHVLKRRDPNLPVVIYPTLVQGEEAAIQIAQAIGRANTRAECDVLIVGRGGGSLEDLWCFNHEIVARTIAASEIPIISAVGHEIDVTIADFVADVRAPTPSAAAELVSRDHRHKQQALHQWQAKLASTMRHYLAQQETQFARLQHKLDKQHPQARLERQQQQLDELSLRLEQKMQQRLATQQQRWDRLSHKIELHSPIHLIRQQRFNLIQQEQRINQSIQRYLIQSRHQLALLSEKLDAVSPLATLARGYSVTRTTQGELVRQSAQVKPGDTLVTQLMDGEILSTVNSREG	not soluble
MGSDKIHHHHHHMTITEKRKDFILNSWIKISDDCLKEYLSRELELTDKGQVKSTTTNIITAIVNPDYCVSHKILNGSVFFDTCSQTIRLIGSIKGESEVNLKAPRKWTDQLTNLLGVEIEMNFGIKYSKGRMEEAVIFIANKRRVNLPKLYMKSLKYDGEDYISKLLPKYLGVDDTALNRWIMEHMLIGMVNRVFYPGCKFDEIMVLTGEQGVGKTSFIEKLALLPDWYCSLNNIKGKDAVSNLVGKIVVELEEFVALKNAKTADEAKLFISTRTSTVRLSYERFSADVDRTCIMIATTNDMTFLGDFSGERRYLPVQVHKEKVGLPVMYDQEKFPQLKGVSREEYSKIVKKDFEGAVAQAVYLFENKLYSPVLPVELRKDLNQVIQMHKNENRHVQNFFEFMDWKDTKSDTPNRVCSGEFLSQYPQTNEKVFAELMANEMADKWELEPTDKSRKFKIDGRVRVSKKFYVRKNMPDFIEVTDDIEIPF	not soluble
MSLPNIFVEELVHTPIEKQVIEIVERKGIGHPDSLADGMAEAMSRELSREYIRRFGAVLHHNTDETQIVAGRSNPQFGGGEVIEPIYVLLVGRATKFFNGEYIPTDKIALKAARDYIRQHMQNLDPELDVVFNVRLGEGSTDLQDVFRRKSGNVALANDTSFGIGFAPLSETERLVFNVERRIYEEFRKKNPAIGEDVKVMGLREKDRISLTIAAAFVDRYVANIKEYDAIKEELENFVKEISSEYTEREVEVFVNTADDYETGCVYLTVTGTSAENGDDGSVGRGNRCNGLITPGRPMSMEASSGKNPINHVGKIYNLLANQIAARIAEEVEGVEEVYVRILSQIGKPINEPKALSVQVIPKSGYDISKLERPARDIAEEMIANVGKITDMVIEGKVRTFEGHHHHHH	soluble
MAHHHHHHMKSTQSNLNDEEKVMNNNEKIIKNSYGELLSGCIKNKSSDMNTGDVYPCNDKNTKIVSIKNVYNNLYKTSDSLFFNEENEENRMENCIIRNDGRDMENKFSLYINNAENKDDNNMNNNKNDNINDNINDNINDNINDNINDNINDNINDNINNNINDNINNNIYHNQNNNIYHNIYHNNIINDGVIINEHTSHGDRSSFLNNNKNYNISNYTNHGHNINLNEEKNEKVYMHRNENNEKIHYSNNKDYIEKGNEKSVSSKKGEETYTNNSYNIHLKNMDVKNNERDMCKTMVNNSNIKENKKYSNKTIQQEENTEHEYNIINEEEEEHIKLFKNMNLEEIKNVLSKNDASTLKILLCTDNHLGYKENNSIQKKDSFNSFEEILFIAKKLNVDMILNSGDLFHKNKVSEYTLFKSMYIIRKYCHINENDKEMQQDDNINNNIYPNDLNNDDKSVSKAISEDEFCNMYNVQVKEIKNYKYEYYKNEHTLNNRNNIFDDTNDCMSNKSFIQDKNENLYKDDEDNTNGVKLLQRNDEMNNSDHPGEYLNYRNGKKQIKYYNKLKENNNEFFNKLKICSVNQKFKKLIPFYTIHGNHDYPYSYEYISPLDILNISNLINYIGKNNLNNIVVKPILLNKYKSKISIYAVGWMKDERLYRSFENNEVKFILPSDYKNRINILVLHQNRYIRNAYGNNTKNFIKESFIPKFIDLVIWGHEHFSKPYLEESILNSFYNIQLGSSVRTSICPNEYGDKFIGLLEIKNQRFRFLKINLETVRPFEMKDIKLADYELNFKSESVLKEFLHEQTHAILEKIKNNFSHEIKKYFFFKQLFHTKNKLETNTNKKHQTEYNNINICTKEINSHLNDYQDENLYKSLISISKEDINNFYNNLKNEDFYSSTFIHFAFADPYDTFDLLKIKKEVYEKPLLKIKVEYDDVNIINTQLFGSLFINSIANPSEFLSFYRKKIRQRDIYNNNDNNNDNINDNNNNNDHGKNNTNHDTYNNNYNNNRIDEDEGDKDLHNMEYINEYNKVFDILFDYCDIKNKLLILDENVIMDTIQNFILNTNSSFNFNTNVTSDFTSINSMVDKSFKNKVESIEKQMGNMSAENITDAYLTDVLKKIKNTS	not soluble
MCMGGINDNLVRFVYKYKIKMKRERSAMNIEYMNQKVEFSLVRKERKSIKISVNRDFTIEVIAPFNVAEEEIKNVVYKKMKWIIKQMKRMENIIDINEEIKYSDGDAFYIFGTPYRLIVKKGIKNKMRIFGENVYMYIKEKDNYEYKKNYAEKWYKKIAAIELEYLYNEKYKIFDEIYDEKPKLIRKMKSKWGSYSPADNKVVLNTQLVKIPKTCIEYVIIHELCHVKFRNHRKEFYNYVNNFMPDWKLKKESLDRYVNVLEHHHHHH	not soluble
MGSDKIHHHHHHMAVSELQVQSALKELIDPNTHKDYVTTKSARNIKIDGDAVSVDIALGYPAQSQLATIKQQVEDKLKTLDGVSKATANVSFKIVSHSVQRGVKLIPNVKNIIAVASGKGGVGKSTTAVNLALALAAEGARVGMLDADIYGPSQPTMLGITDKPESTDGKNLDPLIGHGIQAMSIGFLIDVETPMVWRGPMVTQALEQLLNNTNWNELDYLVVDLPPGTGDIQLTLAQRVPVTGAVIVTTPQDIALIDARKGLKMFEKVGIPIIGVVENMSLHICSNCGHEERIFGEGGGERMCRDYNVEFLGALPLDSSIRADTDSGKPSVVSDPDGRVTEIYKQIARRVAVKIGETAVDHSAKFPNIVISNT	not soluble
MSLKIRQARLEDLDRIVELEFENFSVEEAIPPSVFEAHLREIQTSFLVAEKEGRIMGYIEGPVGLHRHLQDQSFTEEIKDYSHEPGGYISVTCLSIAKEAQGLGLGQKLLTALKEVALEDERDGINLTCHDYLIAYYEKHGFVNEGQSQSTFAGETWYDMVWEMKKEGHHHHHH	soluble
MTSGAPPTISTEKSRSKQLRKSSKRTASTVEGTEAKQMRGDTENRSDGEMDDVSTSSEIRHGNGFIENFRSQTGNSSRTTATNERIKKKLVIKNFKANANQNDVAMGDTNIDSTDGSVGRDWAVLSDNVFAILEDRKTVTTLEGLFSKVRSVCDKNQSKVLYDRLVAIVVQFAKSLKESLNAVEQVPLAEDNCEQYLEKFGQIWQAYPVKINLIRNIFLHLDRIALGATDTEILPLWECFMQIFQKTFFPNIFKEFKATKLFNALYMAMQKIMQRYPVDSPLRSLVDMLQTVHVSEEFAKFLISQLREHYNNERIDKVPKMNCNDYMEYCEDQINRYSQLVKVNFDEPSALKDVQATVTNCLIQQAIPEILTHDFDDLIDSDNISDIGRMFNLCRQCVGGEDEVRTQFSKYLKKRGEKLIATCPDEDLVSELLAFKKKVDFIMTGSFKSANDPVKMRQCLSDAFESFVNKQVDRSAELISKHFHTLLHSSNKNVSDDTTLDQMVDEAIVLFRYLRGKDVFEAYYKRGLAKRLFLERSASVDAEKMVLCKLKTECGSAFTYKLEGMFKDMDASENYGRLFNQYLEHMNKEKANFTARVITPEYWPTYDTYEINIPKEMRDTLTDYQDFYRVQHGNRNVKWHHGLASAVISASFRPGCKKELIATMYQTVILLLFNKCETWTVAEIVEHTKILEIEVVKNVLALLGGRDKPKVLQRVEGGGSEKKEGTVENLKNEKFVVNSKFTEKRCRVRIAQVNIKTAVEETKEVKEEVNSDRQYKIDAAVVRIMKARKQLNHQTLMTELLQQLRFPVSTADIKKRLESLIEREYISRDPEEASSYNYVA	not soluble
MAHHHHHHMEKDDHYKTSEKYEICTSFENIGIDEGLLRGIYAYGFEKPSAIQQRGIKPILNGRDVILQSQSGTGKTCVFAVGALNCVNRNLNETQVIILSPTRELAEQTQKVCLALADYIHVTIYCCIGGKKMSDDIKALNNGVHVISGTPGRIYHMLNLRHLKCKYIKQLVIDEADEMLNKGFKEQVYDIYRFLSPNTQIILSSATLPQEVLEITNKFMHKPVKILVKRDELTLEGIKQFFVSIEKEQWKYETLADLYESLTITQAVVFCNTQMKVDWLTKKMLESNFTVCKMHAGMSQSERDDIMLKFRQCKFRVLISTDIWGRGLDVQEVSLVVNYDLPNSRESYIHRIGRSGRFGRKGVAINFVKNDDIKILRDIEQYYSTQIDEMPMNITELL	not soluble
